Test results reported in patent US20260327324 (published 2026).
Where a chain is given by its changes, count along the chain named. Names may count otherwise. Values belong to the binder of their own block, whether it stands above or below them.

Legend:
PD-L1 = PD-L1 (UniProt Q9NZQ7); test: SPR
CD3e = biological target: T1, CD3e (UniProt P07766); test: SPR
T1 chain: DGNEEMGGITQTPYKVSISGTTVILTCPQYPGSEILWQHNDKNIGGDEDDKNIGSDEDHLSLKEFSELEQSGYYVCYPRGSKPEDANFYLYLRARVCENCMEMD

PD-L1, sequence (Q9NZQ7 19-238): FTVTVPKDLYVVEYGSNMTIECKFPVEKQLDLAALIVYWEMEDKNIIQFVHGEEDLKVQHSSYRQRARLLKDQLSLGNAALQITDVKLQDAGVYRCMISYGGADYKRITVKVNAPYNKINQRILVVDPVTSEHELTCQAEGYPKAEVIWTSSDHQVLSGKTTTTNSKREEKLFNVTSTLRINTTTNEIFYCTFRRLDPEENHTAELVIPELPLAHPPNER

- binding result (PD-L1): no binding
B1: PRO3478 (37-20-B03-sc09.1 Y42S human consensus LCDR2) (antibody)
chain: DIQMTQSPASLSASVGDRVTITCQASQSIGTYLAWYQQKPGKPPKLLIYAASSLQSGVPSRFSGSGSGTDFTLTISSLQPEDFATYYCQSNFYSDSTTIGPNAFGTGTKVTVLGGGGGSGGGGSGGGGSGGGGSEVQLVESGGGLVQPGGSLRLSCAASGFSFNSDYWISWVRQAPGKGLEWIASIYGGSSGNTQYASWAQGRFTISRDNSKNTVYLQMNSLRAEDTAVYFCARGYVDYGGATDLWGQGTLVTVSS

- Kd (CD3e): 5.2 nM
B2: PRO3718 (28-21-D09-sc04 A67G_S68G) (antibody)
chain: DIQMTQSPSSLSASVGDRVTITCQSSQSVFSNNYLAWFQQKPGQSPKRLIYSGGTLASGVPSRFSGSGSGTDFTLTISSLQPEDFATYYCLGSYACSSADCYVFGTGTKVTVLGGGGGSGGGGSGGGGSGGGGSEVQLVESGGGLVQPGGSLRLSCAASGFSLSSYDMSWVRQAPGKGLAWIGASYASGPTYYASWAKGRFTISRDNSKNTVYLQMNSLRAEDTATYFCARGGWTGTSHSNIWGQGTLVTVSS

- Kd (CD3e): 5.88 nM
B3: PRO2781 (28-21-D09-sc04) (antibody)
chain: B2 chain with G53A, G54S
